Experimental data: article PMC3894171, “Defining NELF-E RNA Binding in HIV-1 and Promoter-Proximal Pause Regions”

Key:
Conditions in all cases: protein: recombinant, tags: N-terminal His6 (pHIS-parallel1), label: 3' fluorescein (5-thiosemicarbazide)
dNELF-E [1] = molecular target: T1, dNELF-E (Drosophila, UniProt P92204 1-280); assay: fluorescence polarization; 10 mM HEPES-NaOH pH 7.5, 100 mM NaCl, 25 mM KCl, 1 mM MgCl2, 0.02% Tween-20, 0.01% IGEPAL CA-630, 10 µg/ml yeast tRNA; 2 nM RNA, 0-2000 nM protein, 1-2 h, binding temperature not stated; gel 5% acrylamide 0.5X TBE at 4 °C
T1 sequence: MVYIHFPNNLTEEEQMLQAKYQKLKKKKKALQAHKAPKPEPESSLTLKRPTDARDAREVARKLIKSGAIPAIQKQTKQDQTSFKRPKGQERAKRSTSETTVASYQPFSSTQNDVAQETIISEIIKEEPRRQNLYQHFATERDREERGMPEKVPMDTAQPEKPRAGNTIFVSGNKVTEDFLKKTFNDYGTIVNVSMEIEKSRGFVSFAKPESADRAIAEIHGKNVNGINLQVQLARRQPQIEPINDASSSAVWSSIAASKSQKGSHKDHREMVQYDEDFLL

dNELF-E [2] = molecular target: T1, dNELF-E; assay: F-EMSA; 10 mM HEPES-NaOH pH 7.5, 100 mM NaCl, 25 mM KCl, 1 mM MgCl2, 0.02% Tween-20, 0.01% IGEPAL CA-630, 10 µg/ml yeast tRNA; 2 nM RNA, 0-2000 nM protein, 1-2 h, binding temperature not stated; gel 5% acrylamide 0.5X TBE at 4 °C
hNELF-E [3] = molecular target: T2, hNELF-E (human, UniProt P18615 1-380); assay: fluorescence polarization; 10 mM HEPES-NaOH pH 7.5, 100 mM NaCl, 25 mM KCl, 1 mM MgCl2, 0.02% Tween-20, 0.01% IGEPAL CA-630, 10 µg/ml yeast tRNA; 2 nM RNA, 0-2000 nM protein, 1-2 h, binding temperature not stated; gel 5% acrylamide 0.5X TBE at 4 °C
T2 sequence (P18615 whole entry): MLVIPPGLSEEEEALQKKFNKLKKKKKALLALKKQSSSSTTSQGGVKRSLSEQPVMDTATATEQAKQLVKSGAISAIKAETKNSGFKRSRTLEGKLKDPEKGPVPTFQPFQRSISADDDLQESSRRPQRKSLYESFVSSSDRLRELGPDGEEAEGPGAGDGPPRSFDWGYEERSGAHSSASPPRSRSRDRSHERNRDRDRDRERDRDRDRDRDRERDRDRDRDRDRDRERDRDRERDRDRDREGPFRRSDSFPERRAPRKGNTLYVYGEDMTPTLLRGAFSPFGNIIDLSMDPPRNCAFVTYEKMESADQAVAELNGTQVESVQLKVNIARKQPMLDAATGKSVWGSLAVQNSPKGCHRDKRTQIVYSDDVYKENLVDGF

hNELF-E [4] = molecular target: T2, hNELF-E; assay: F-EMSA; 10 mM HEPES-NaOH pH 7.5, 100 mM NaCl, 25 mM KCl, 1 mM MgCl2, 0.02% Tween-20, 0.01% IGEPAL CA-630, 10 µg/ml yeast tRNA; 2 nM RNA, 0-2000 nM protein, 1-2 h, binding temperature not stated; gel 5% acrylamide 0.5X TBE at 4 °C
[5] = no predicted secondary structure

GGCCCCACUGAGGAUGCCCACGGGCGUCCUCAGUGGGGCCA (structured_RNA) [Napt1+hairpin]
Kd (dNELF-E [1]; hairpin, NBE base-paired): 470 ± 170 nM | Kd (dNELF-E [2]; hairpin, NBE base-paired): 810 ± 50 nM

B1: HIV-1 TAR (structured_RNA)
RNA: GGUCUCUCUGGUUAGACCAGAUCUGAGCCUGGGAGCUCUCUGGCUAACUAGGGAACC
Kd (hNELF-E [3]; hairpin with UCU bulge): 200 ± 10 nM | Kd (dNELF-E [1]; hairpin with UCU bulge): 130 ± 10 nM | Kd (hNELF-E [4]; hairpin with UCU bulge): 300 ± 20 nM | Kd (dNELF-E [2]; hairpin with UCU bulge): 350 ± 35 nM

B2: HIV-1 TAR+A (structured_RNA)
RNA: GGUCUCUCUGGUUAGACCAGAUCUGAGCCUGAGGAGCUCUCUGGCUAACUAGGGAACC
Kd (hNELF-E [3]; hairpin with UCU bulge): 250 ± 20 nM | Kd (dNELF-E [1]; hairpin with UCU bulge): 82 ± 1 nM | Kd (hNELF-E [4]; hairpin with UCU bulge): 250 ± 20 nM | Kd (dNELF-E [2]; hairpin with UCU bulge): 59 ± 2 nM

GGGGACUGAGGAGCAACACGGGCGAUUGGGGCCA (ssRNA) [Napt1-Δstem]
Kd (dNELF-E [1]; [5]): 270 ± 130 nM | Kd (dNELF-E [2]; [5]): 205 ± 20 nM

GGCCCCACUGAGGAUGCCCACGGGCGAUUGGGGCCA (structured_RNA) [Napt1min]
Kd (hNELF-E [3]; putative K-turn stem-loop): 140 ± 10 nM | Kd (dNELF-E [1]; putative K-turn stem-loop): 21 ± 7 nM | Kd (hNELF-E [4]; putative K-turn stem-loop): 420 ± 90 nM | Kd (dNELF-E [2]; putative K-turn stem-loop): 44 ± 22 nM

GGCCCCAUCAAAGAUGCCCACGGGCGAUUGGGGCCA (structured_RNA) [Napt1NBEmut]
Kd (dNELF-E [2]; predicted structure kept as in Napt1min): 880 ± 170 nM

B3: Napt25min (structured_RNA)
RNA: GGUCUCCAACUGAGGAUACCGCUCGAGGAAGCGAGUGGCGAUUUGGAGACCU
Kd (dNELF-E [1]; putative K-turn stem-loop): 30 ± 2 nM | Kd (dNELF-E [2]; putative K-turn stem-loop): 53 ± 9 nM
